From publication PMC11931385, “Structural and functional analysis of cancer-associated missense variants in the retinoblastoma protein pocket domain” (The Journal of Biological Chemistry, 2025)
No end group written: not given here. TMR = tetramethyl rhodamine dye

T1: Rb^P R741H (human, UniProt P06400 380-788, R741H)
T1 construct: also called variant 69
T1 sequence (looked up): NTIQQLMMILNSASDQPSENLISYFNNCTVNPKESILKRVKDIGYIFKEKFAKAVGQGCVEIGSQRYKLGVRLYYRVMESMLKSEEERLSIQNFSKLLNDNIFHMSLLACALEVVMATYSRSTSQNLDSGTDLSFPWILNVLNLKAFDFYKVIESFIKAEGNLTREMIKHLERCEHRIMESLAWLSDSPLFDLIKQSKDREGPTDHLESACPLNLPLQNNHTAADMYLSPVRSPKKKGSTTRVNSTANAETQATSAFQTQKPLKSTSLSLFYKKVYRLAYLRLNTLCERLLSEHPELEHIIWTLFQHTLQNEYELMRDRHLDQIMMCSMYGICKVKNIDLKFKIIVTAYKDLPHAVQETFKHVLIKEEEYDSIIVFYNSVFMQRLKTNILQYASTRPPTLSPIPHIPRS

T2: Rb^P R451H (human, UniProt P06400 380-788, R451H)
T2 construct: also called variant 6
T2 sequence (looked up): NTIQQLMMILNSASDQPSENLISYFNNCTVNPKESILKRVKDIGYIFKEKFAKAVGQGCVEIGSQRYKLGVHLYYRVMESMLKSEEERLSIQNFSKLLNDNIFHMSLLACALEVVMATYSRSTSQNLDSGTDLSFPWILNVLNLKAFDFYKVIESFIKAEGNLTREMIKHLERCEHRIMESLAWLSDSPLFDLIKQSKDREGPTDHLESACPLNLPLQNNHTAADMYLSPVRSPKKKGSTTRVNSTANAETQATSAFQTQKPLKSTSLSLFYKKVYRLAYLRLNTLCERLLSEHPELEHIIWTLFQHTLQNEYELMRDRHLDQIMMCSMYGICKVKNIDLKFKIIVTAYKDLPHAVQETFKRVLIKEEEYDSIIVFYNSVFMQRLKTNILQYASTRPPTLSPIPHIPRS

T3: Rb^P A525G (human, UniProt P06400 380-788, A525G)
T3 construct: also called variant 20
T3 sequence (looked up): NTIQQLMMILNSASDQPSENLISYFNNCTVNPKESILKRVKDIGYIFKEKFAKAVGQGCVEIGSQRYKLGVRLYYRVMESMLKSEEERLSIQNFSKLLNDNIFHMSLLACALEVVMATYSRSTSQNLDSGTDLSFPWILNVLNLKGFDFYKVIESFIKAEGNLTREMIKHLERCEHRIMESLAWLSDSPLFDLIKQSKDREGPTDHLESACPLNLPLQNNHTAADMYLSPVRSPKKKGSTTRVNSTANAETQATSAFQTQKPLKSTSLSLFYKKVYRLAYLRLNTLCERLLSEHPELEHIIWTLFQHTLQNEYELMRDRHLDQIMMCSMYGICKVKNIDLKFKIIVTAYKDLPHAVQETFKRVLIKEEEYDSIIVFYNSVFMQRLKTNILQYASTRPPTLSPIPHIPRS

T4: Rb^P L550I (human, UniProt P06400 380-788, L550I)
T4 construct: also called variant 27
T4 sequence (looked up): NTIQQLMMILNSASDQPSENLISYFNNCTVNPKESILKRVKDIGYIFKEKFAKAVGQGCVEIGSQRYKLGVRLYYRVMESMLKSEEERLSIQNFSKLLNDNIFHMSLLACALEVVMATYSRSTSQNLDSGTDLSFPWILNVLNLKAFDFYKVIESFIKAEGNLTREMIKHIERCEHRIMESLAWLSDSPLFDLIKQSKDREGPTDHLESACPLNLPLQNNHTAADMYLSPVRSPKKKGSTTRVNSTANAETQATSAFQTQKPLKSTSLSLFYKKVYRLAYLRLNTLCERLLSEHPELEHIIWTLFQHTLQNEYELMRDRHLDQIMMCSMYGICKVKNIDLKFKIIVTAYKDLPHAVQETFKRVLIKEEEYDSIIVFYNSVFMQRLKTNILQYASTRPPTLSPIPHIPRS

T5: Rb^P M704V (human, UniProt P06400 380-788, M704V)
T5 construct: also called variant 66
T5 sequence (looked up): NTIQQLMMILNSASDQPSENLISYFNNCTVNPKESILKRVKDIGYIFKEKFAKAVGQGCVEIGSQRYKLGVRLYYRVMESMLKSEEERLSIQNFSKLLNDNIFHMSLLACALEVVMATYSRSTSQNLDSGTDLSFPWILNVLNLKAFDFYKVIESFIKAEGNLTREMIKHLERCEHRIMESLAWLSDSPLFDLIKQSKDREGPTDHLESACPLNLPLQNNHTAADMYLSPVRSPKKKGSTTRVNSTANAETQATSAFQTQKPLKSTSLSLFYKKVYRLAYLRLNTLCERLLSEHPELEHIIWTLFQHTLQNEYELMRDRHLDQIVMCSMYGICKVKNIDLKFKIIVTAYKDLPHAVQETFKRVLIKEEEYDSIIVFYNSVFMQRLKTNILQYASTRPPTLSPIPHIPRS


Legend:
Test in all cases: fluorescence polarisation; 25 °C; unlabeled Rb^P titrated against 1.5 nM TMR-E2F1^TD or 7.5 nM TMR-E7^LxCxE; 25 mM Tris pH 8.0, 200 mM NaCl, 1 mM DTT, 0.1% Tween-20; 2 min incubation; quadratic fit; apparent Kd for the variants, Kd for WT
Settings in all cases: both partners purified
Rb^P R741H = target: T1, Rb^P R741H
Rb^P R451H = target: T2, Rb^P R451H
Rb^P A525G = target: T3, Rb^P A525G
Rb^P L550I = target: T4, Rb^P L550I
Rb^P M704V = target: T5, Rb^P M704V

| Binder | Kd (Rb^P R741H) [nM] | Kd (Rb^P R451H) [nM] | Kd (Rb^P A525G) [nM] | Kd (Rb^P L550I) [nM] | Kd (Rb^P M704V) [nM] |
| --- | --- | --- | --- | --- | --- |
| {TMR}-GEGIRDLFDCDFGDLTPLD (also called E2F^TD; source: synthetic peptide, bought: GenScript) [TMR-E2F1^TD, peptide of the E2F1 transactivation domain] | 21 | 29 | 36 | 41 | 41 |
| DLYCYEQLN (also: TMR label, position not given here, source: synthetic peptide, bought: GenScript) [TMR-E7^LxCxE, LxCxE peptide of the E7 oncoprotein from HPV] | 18 | 9 | 12 | 3 | 18 |
